Assay results published in patent US20160244802A1 (UNIVERSITY OF NORTH CAROLINA AT CHAPEL HILL, published 2016).

Target: the molecule itself
Experiment: gel filtration (Sephacryl S300) native size against about 150 kDa on SDS-PAGE; inference
Experimental: The bound proteins were eluted with a 12-cv linear gradient from BD50 to BD450. The flow-through containing the HDM activity was adjusted to 700 mM ammonium sulfate before it was loaded onto a 22 mL Phenyl Sepharose® column (Pharmacia). The bound proteins were eluted with a cv linear gradient from BD700 to BD0. The active fractions, which eluted from 10-BD150-BD50, were combined and concentrated to 5 mL before they were loaded onto a 120 mL Sephacyl® S300 gel filtration column (Pharmacia). The active fractions, which eluted around 300 kDa, were pooled and loaded onto a 1 mL MonoS® column (Pharmacia) equilibrated with BC50. Bound proteins were eluted with a 20-cv linear gradient from BC50 to BC400. The active fractions eluted from BC100 to BC150. […]
To identify the protein(s) responsible for this demethylase activity, we monitored the enzymatic activity through five chromatography columns (Scheme 5). After purification of the 0.3 M P11 fraction through DEAE5PW and Phenyl Sepharose® columns, we determined that the native mass of the enzymatic activity was about 300 kDa as assessed by a Sephacyl® S300 column (FIG. 9A). […] To verify that JMJD1A was responsible for the detected demethylase activity, an antibody against this protein was generated and used to immunoprecipitate JMJD1A from the MonoS® column fractions 21-29. […]

B1: native JHDM2A (JMJD1A) purified from HeLa cells (enzyme)
chain: MVLTLGESWPVLVGRRFLSLSAADGSDGSHDSWDVERVAEWPWLSGTIRAVSHTDVTKKDLKVCVEFDGESWRKRRWIEVYSLLRRAFLVEHNLVLAERKSPEISERIVQWPAITYKPLLDKAGLGSITSVRFLGDQQRVFLSKDLLKPIQDVNSLRLSLTDNQIVSKEFQALIVKHLDESHLLKGDKNLVGSEVKIYSLDPSTQWFSATVINGNPASKTLQVNCEEIPALKIVDPSLIHVEVVHDNLVTCGNSARIGAVKRKSSENNGTLVSKQAKSCSEASPSMCPVQSVPTTVFKEILLGCTAATPPSKDPRQQSTPQAANSPPNLGAKIPQGCHKQSLPEEISSCLNTKSEALRTKPDVCKAGLLSKSSQIGTGDLKILTEPKGSCTQPKTNTDQENRLESVPQALTGLPKECLPTKASSKAELEIANPPELQKHLEHAPSPSDVSNAPEVKAGVNSDSPNNCSGKKVEPSALACRSQNLKESSVKVDNESCCSRSNNKIQNAPSRKSVLTDPAKLKKLQQSGEAFVQDDSCVNIVAQLPKCRECRLDSLRKDKEQQKDSPVFCRFFHFRRLQFNKHGVLRVEGFLTPNKYDNEAIGLWLPLTKNVVGIDLDTAKYILANIGDHFCQMVISEKEAMSTIEPHRQVAWKRAVKGVREMCDVCDTTIFNLHWVCPRCGFGVCVDCYRMKRKNCQQGAAYKTFSWLKCVKSQIHEPENLMPTQIIPGKALYDVGDIVHSVRAKWGIKANCPCSNRQFKLFSKPASKEDLKQTSLAGEKPTLGAVLQQNPSVLEPAAVGGEAASKPAGSMKPACPASTSPLNWLADLTSGNVNKENKEKQPTMPILKNEIKCLPPLPPLSKSSTVLHTFNSTILTPVSNNNSGFLRNLLNSSTGKTENGLKNTPKILDDIFASLVQNKTTSDLSKRPQGLTIKPSILGFDTPHYWLCDNRLLCLQDPNNKSNWNVFRECWKQGQPVMVSGVHHKLNSELWKPESFRKEFGEQEVDLVNCRTNEIITGATVGDFWDGFEDVPNRLKNEKEPMVLKLKDWPPGEDFRDMMPSRFDDLMANIPLPEYTRRDGKLNLASRLPNYFVRPDLGPKMYNAYGLITPEDRKYGTTNLHLDVSDAANVMVYVGIPKGQCEQEEEVLKTIQDGDSDELTIKRFIEGKEKPGALWHIYAAKDTEKIREFLKKVSEEQGQENPADHDPIHDQSWYLDRSLRKRLHQEYGVQGWAIVQFLGDVVFIPAGAPHQVHNLYSCIKVAEDFVSPEHVKHCFWLTQEFRYLSQTHTNHEDKLQVKNVIYHAVKDAVAMLKASESSFGKP
notes: Endogenous protein in MonoS column fractions from HeLa nuclear extract; also called TSGA
binding result: binds
